Where no end group is shown, it is not given here.

1 sequence from patent publication US20170000909A1, “ENZYME DIRECTED ASSEMBLY OF PARTICLE THERANOSTICS” (The Regents of the University of California, priority 2011, published 2017) can be followed below.

The assay deals with T1, MMP-9 (Homo sapiens, UniProt P14780).
T1 construct: purchased Calbiochem
Nature of the assay: MMP-9 cleavage efficiency assay (RP-HPLC). The class given is biochemical. Conditions: 120 μM, MMP-9 24 hrs, disappearance of peak at 29 minutes. The procedure: To 5 μL of enzyme was added 0.4 μL of a 24 mM π-aminophenyl mercuric acetate solution in freshly prepared 0.1 M NaOH. The enzyme solution was heated at 37° C. for 2 hrs prior to use.
120 μM of M1 (with respect to peptide) and 120 μM of Peptide-1 were treated with MMP-9 (100 μU, 1.25 μL) for 24 hrs. The control was performed using 120 μM of Peptide-1 without treatment with MMP-9. These samples were then analyzed by RP-HPLC following inactivation of MMP-9 at 65° C. for 20 mins (FIG. 21A). Peak A is the intact, full length Peptide-1 without treatment with MMP-9, and Peak B is the large fragment of Peptide-1 cleaved by MMP-9 as confirmed by MALDI-MS shown in FIG. 21B, left.

T1 sequence (P14780 107-707 limits assumed): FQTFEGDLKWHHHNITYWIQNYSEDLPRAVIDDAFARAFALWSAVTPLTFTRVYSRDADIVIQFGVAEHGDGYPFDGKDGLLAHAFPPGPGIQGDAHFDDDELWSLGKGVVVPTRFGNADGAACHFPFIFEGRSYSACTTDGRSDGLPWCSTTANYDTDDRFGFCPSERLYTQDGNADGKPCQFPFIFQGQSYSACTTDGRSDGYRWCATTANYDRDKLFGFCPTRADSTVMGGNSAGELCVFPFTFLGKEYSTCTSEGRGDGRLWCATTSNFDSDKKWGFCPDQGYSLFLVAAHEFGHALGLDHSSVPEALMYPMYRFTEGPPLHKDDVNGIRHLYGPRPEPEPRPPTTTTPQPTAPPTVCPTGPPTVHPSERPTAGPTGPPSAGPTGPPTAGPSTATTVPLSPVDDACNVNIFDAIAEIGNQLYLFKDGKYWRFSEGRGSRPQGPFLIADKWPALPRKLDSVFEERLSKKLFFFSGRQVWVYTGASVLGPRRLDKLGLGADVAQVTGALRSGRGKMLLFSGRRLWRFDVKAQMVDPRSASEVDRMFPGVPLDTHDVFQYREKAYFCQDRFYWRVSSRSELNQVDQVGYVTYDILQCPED

Take GPLGLAGKWAAAAKAAAAK [Peptide-1]: the “MMP-9 cleavage efficiency” value is reported as “quantitative”.
